Reference: the RNAGym collection of RNA variant scans (doi:10.1073/pnas.2313332121)

B1: TPR t1 (parent)
chain: GACCAAUCUGCCCUCAGAGCUCGAGAACAUCUUCGGAUGCAGAGGAGGCAGGCUUCGGUGGCGCGAUAGCGCCAACGUCCUCAACCUCCAAUGCAUCCCACCACAUGAUGAUGCCUGAAGAGCCUUGGUUUUUUG

Variants of: B1
Test: polymerase ribozyme fitness, log enrichment relative to wild type (log ratio); higher = more active; in vitro selection for triplet polymerase activity
How it was run: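 Both subunits of a heterodimeric triplet polymerase ribozyme were given their own mutant library, built by PCR and transcribed. Each library was annealed with a biotinylated primer, the partner subunit and triplets, incubated frozen at −7 °C, and its extended constructs gel-excised, captured on streptavidin beads and amplified by RT-PCR, all in one round done in triplicate. Fitness is the logarithm of genotype enrichment relative to wild-type enrichment, with replicates averaged by inverse-variance weighting. That logarithm is base 2, and Illumina-sequenced genotypes needed ≥10 input reads and ≥1 read per output.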

Point of comparison: C3U G93C, “polymerase ribozyme fitness (log ratio)” value -1.09. Against it:
- C4U G19A C56G U106A C123G — lower, -3.72
- C79U C80U C104U — lower, -1.54
- C34U U54A G69U C79U G93A U96A — lower, -6.73
- G60C U96C C104U G117A — lower, -2.83
- C11U A105C A118G — lower, -2.52
- C4U G47A G107U C124U — lower, -3.15
- A6C C53G — higher, -0.863
- A18U C62A — lower, -4.11
- C62A C94U — lower, -1.76
- A5U A6G C86A C102A — lower, -3.72
- C13G G63C C85G U112A G120C — lower, -1.45
- A2U G113U — lower, -4.15
- C13A C20U U38A A91U C124G — lower, -1.87
- C72U U78C C97A — lower, -4.87
- C8G G117C C124A — within 0.2 log units, -0.905
- C8G C11G C56A C104A — lower, -1.39
- G63A U116C — within 0.2 log units, -0.908
- C89A C114G — lower, -2.82
- C13G U21A G52C A91C G120C — lower, -3.21
- G48A G57A G60U G120A — higher, -0.327
- C8A A18C U38G G61C C94U G110U C123U — lower, -7.38
- C13G C20U C64U C104A A111U U130G — lower, -5.67
- G63A U131G G135U — higher, -0.787
- U55G C115U — higher, -0.797
- C3A G10U U38A C49U C82U G128A U131G — lower, -1.74
- A2C G61U — lower, -1.66
- G69A G117C — lower, -5.44
- G57A G63U A75U U133A — lower, -1.97
- C85U G120U — higher, 0.655
- A2G C12G U21A G71U U78A A121U — higher, 0.758
- U21G C53U C123G — higher, 0.377
- C31U G36U G60C C73U C123U — lower, -4.81
- G44A C49U C76G C88G — lower, -3.44
- C72G C123G — higher, 1.26
- C13A A95C G120A — higher, -0.521
- G10A C56U U96C — higher, -0.627
- C70U G77C — lower, -1.78
- G45U A46G G69A U106A — lower, -3.18
- G47A U125G — lower, -2.16
- U78C G113A A118G U134G G135U — lower, -1.82
- G63A C73U U130G — within 0.2 log units, -0.938
- C12A G110C — lower, -3.17
- U112A G128U — higher, -0.362
- C72A C82A — higher, 0.281
- C53U C86G — within 0.2 log units, -0.977
- C11G C53G U96G A105C U112G — lower, -5.28
- C53G C56U — higher, -0.756
- G51A C53A G61A C73U U133A — lower, -2.11
- C86U C102A U112A C114A — lower, -4.14
- A46G G47A U59A — higher, -0.512
- G39U U78C U96A — lower, -4.33
- C62A C101A G113A — lower, -2.77
- C40G G44A C98U — lower, -5.49
- C72G U92A — lower, -3.94
- G44A A50C G63A C85A — lower, -4.52
- A5U C40A — lower, -2.19
- A27U C72U A83U G127A — lower, -4.42
- G39A G63C C72A — lower, -4.54
- A90U G117C — lower, -1.43
- C40G C56U G77A — higher, -0.862
- G52U G77U G117U U126C — lower, -5.18
- G47A G60U U133G — higher, -0.844
- C76G C98A — lower, -4.09
- G39U C62A C86A — lower, -5.05
- G39A G44A C62G U78C — lower, -6.69
- G17C C20A G63U — lower, -4.87
- A18U C49U A68U U92A U96A G110C — lower, -7.53
- C8A C12G U54A — higher, 0.0252
- G19A C114A — lower, -1.55
- C115A A119U G122U — higher, -0.198
- G61C A83C C89U — lower, -2.95
- U14G C40U U59C A84G U129A — lower, -6.42
- G58C A83U C85A U112G U129G — higher, -0.79
- G51C C79A — lower, -4.29
- C11U C13U C22G C82A — lower, -4.12
- G19U U54G A68G C70G G117C — lower, -5.56
- A37G C49A — higher, -0.708
- C4U C12G G17C G48A U54C C104A C115G — lower, -2.54
- U9G A16U C82U C88U A95U U130G — higher, -0.874
- G63A G93A G120U — within 0.2 log units, -1.07
- C13U U126A — lower, -1.64
- A46G C97U — within 0.2 log units, -1.05
- U9G G69C A105U U112G — lower, -4.11
